{
  "source": "patent US20060281125",
  "about": "“ICBP90 polypeptide and its fragments and polynucleotides coding for said polypeptides and applications for diagnosing and treating cancer” (Institut National de la Sante et de la Recherche Medicale, published 2006)",
  "binders": {"B1": {"name": "ICB2X3 (dsDNA)", "DNA 1": "AATTCGATTGGTTCTGATTGGTTCTGATTGGTTCTT", "DNA 2": "CTAGAAGAACCAATCAGAACCAATCAGAACCAATCG"}},
  "biological_target": "T1, ICBP-59 (Homo sapiens, UniProt Q96T88 SEQ:263-793)",
  "T1 chain": "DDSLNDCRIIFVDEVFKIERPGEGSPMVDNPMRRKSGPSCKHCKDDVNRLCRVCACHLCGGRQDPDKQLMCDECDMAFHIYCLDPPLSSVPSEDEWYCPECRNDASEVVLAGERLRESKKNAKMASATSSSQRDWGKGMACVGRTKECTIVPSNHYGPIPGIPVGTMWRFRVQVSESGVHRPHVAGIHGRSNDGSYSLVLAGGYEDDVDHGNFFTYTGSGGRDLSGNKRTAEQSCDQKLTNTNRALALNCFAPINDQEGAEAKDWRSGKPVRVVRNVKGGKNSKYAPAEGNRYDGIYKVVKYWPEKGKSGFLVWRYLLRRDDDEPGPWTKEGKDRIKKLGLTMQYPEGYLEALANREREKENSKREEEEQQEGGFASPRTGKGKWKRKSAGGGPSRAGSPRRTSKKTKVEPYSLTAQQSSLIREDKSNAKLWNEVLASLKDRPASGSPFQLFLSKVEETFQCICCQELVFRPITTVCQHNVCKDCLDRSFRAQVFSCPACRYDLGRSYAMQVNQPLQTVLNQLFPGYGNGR",
  "test": "EMSA; 12 mM HEPES-NaOH pH 7.9, 60 mM KCl, 4 mM Tris-HCl, 12% glycerol, poly(dI/dC), room temperature",
  "conditions": "tags: GST fusion (pGEX-4T-1), GST cleaved with thrombin; label: 32P; cohesive EcoRI/XbaI ends",
  "description": "The ICBP-59 protein (1 μg) was incubated with 1 ng of oligonucleotide and labelled at its terminal end by phosphorous ³²P in 12% glycerol, 12 mM HEPES-NaOH (pH 7.9), 60 mM KCl, 4 mM Tris-HCl (pH 7.9), 100 ng BSA, 0.6 mM DTT, and 100 ng poly(dI/dC) in 20 μl (Inouye et al., 1994). After a 30-minutes incubation at room temperature, the reaction mix was loaded in 6% polyacrylamide gels. In competition experiments, the quantity indicated of non-labelled oligonucleotides were added to the reaction mix 10 minutes before the addition of proteins. To examine the binding properties of ICBP90 with regard to the ICB2 box, we used the same protocol except that labelled oligonucleotide contained only one copy of the CCAAT sequence as described below: […]",
  "data": [
    {"binder": "B1", "values": [
      {"measurement": "binding result", "result": "binds"}
    ]}
  ]
}
